These results are taken from article doi:10.1101/471821.

No end group written: not given here.

The target in the assay is purified HLA A*03:01 class I MHC molecules. Description: radioligand binding.

B1: …, peptide derived from the DENV envelope (E) region [655 - 668] (peptide)
peptide: DSYIIIGVEPGQLK
modifications: not fully specified
Regarding B1, the IC50 was 2000 nM.

B2: …, peptide derived from the DENV envelope (E) region [655 - 668] (peptide)
peptide: IIIGVEPGQL
modifications: not fully specified
As to B2, the IC50 is more than 5000 nM.
